Measurements: the supplement of paper PMC9170038

Tested on: MS2 coat protein
Test: apparent KD of MS2 coat protein; designed switch direction (-1 OFF switch, 1 ON switch): 1; higher = weaker reporter binding
Summary of the method: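 Each step of the titration lasted 0.8–1.5 h at the lowest concentration and 10–20 min at the highest. The protein, SNAP-549-labelled MS2 coat protein, went from 0.7 or 1.5 nM doubling to 3 µM over RNA switches transcribed on Illumina chips by stalled E. coli RNA polymerase. Normalised cluster fluorescence was curve-fitted, and the per-design median over clusters is given as apparent KD.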

[1] = input ligand: microRNA oligo, concentration not stated
[2] = Eterna round: R95, input ligand: FMN 200 uM
[3] = Eterna round: R95, input ligand: microRNA oligo, concentration not stated
[4] = Eterna round: R95, input ligand: none

Row | Sequence | apparent KD of MS2 coat protein (input ligand: FMN 200 uM) | apparent KD of MS2 coat protein [1] | apparent KD of MS2 coat protein (input ligand: none) | apparent KD of MS2 coat protein [2] | apparent KD of MS2 coat protein [3] | apparent KD of MS2 coat protein [4]
1 | GCUGCAAUAAACGCCUACAUGAGGAUCACCCAUGUAUGUAGGCAGGAUAUCGUAUGCAAAGCAUACGAGAAGGGCCGUAGUAGC [Mat - Same State NG 3 - JL Mod - D36] (Eterna round: R96, puzzle: Same State NG 3) | 0.0264 µM | 0.0444 µM | 0.0566 µM |  |  | 
2 | GCAGUACAUGAGGAUCACCCAUGUCUCUAAAGUCGAGGAUAUGGGCAGGUUAUAUCCGAACCAGAAGGCGAACUGC [SS1 Teenbexe 11] (puzzle: Same State 1) |  |  |  | 0.0686 µM | 0.26 µM | 0.527 µM
3 | AUAAAACAUGAGGAUCACCCAUGUCAACAAAGUCGAGGAUAUGGUCAAAUAAAAUAAGAACCAGAAGGCGAAUAAU [salish99_ss1_r3_029] (puzzle: Same State 1) |  |  |  | 0.0178 µM | 0.0263 µM | 0.0253 µM
4 | CUGCUACAUGAGGAUCACCCAUGUUGGAGUAAUGCAGGAUAUGUGGGACCAGAAGAUAAAACAGAAGGGCAAGGAG [JR_SS!_Sub007] (puzzle: Same State 1) |  |  |  | 0.018 µM | 0.0144 µM | 0.0288 µM
5 | GAGUGGUGGAGAGGAUAUACAUUGAUAAUCACUGUAGAAGGUUCUAACAUGAGGAUCACCCAUGUAGGACUAUUCCUGAGAGUU [Parity 53 - Jieux - Same State NG 1] (Eterna round: R96, puzzle: Same State NG 1) | 0.0116 µM | 0.00989 µM | 0.012 µM |  |  | 
6 | AUAAGUUCGAUGCUCGUCUCUCCGUACAAACAUGAGGAUCACCCAUGUGGUCGGGAAGUAGCCCGGCCAGUAUGACC [Arbesoce] (puzzle: Sensor for hsa-mir-208a) |  |  |  | 0.0312 µM | 0.022 µM | 0.029 µM
7 | AAGAGAGGAAGCGAGGAUAUCGUGGGAGGGACAUGAGGAUCACCCAUGUAGGAUGUUGAGAGGAACGAGAAGGCGCAGGAAAGAA [JR_SS2_Sub074] (puzzle: Same State 2) |  |  |  | 0.0874 µM | 0.0733 µM | 0.0961 µM
8 | AUAGUUUCCGAAGGAUAUGAUGAGGAUCACCCAUCAGAAGGUUGGCUAUUGGGCUGACAUGAGGAUCACCCAUGUUCUGGUGUU (Eterna round: R96, puzzle: Same State NG 1) | 0.0391 µM | 0.0332 µM | 0.057 µM |  |  | 
9 | AUUAUUAAUGCAGGAUAUGAUUAACAUGAGGAUCACCCAUGUGGUGUUGUGAGUAAGGAGAGUGAUCAGAAGGGCAUUUUUUCU [JMF's solution 17] (Eterna round: R96, puzzle: Same State NG 2) | 0.558 µM | 0.442 µM | 0.585 µM |  |  | 
10 | CGCCAGAGAGCAGGAUAUGGGCCACGGCCUAAGGGCUGUGAACUCACAUGAGGAUCACCCAUGUCCCAGAAGGGCUCCUGGCGG [Veatzain] (Eterna round: R96, puzzle: Same State NG 2) | 0.0624 µM | 1.24 µM | 2.11 µM |  |  | 
11 | UCUUGGUUUUUGCUCGUUUUUUGUGUUGAACAUGAGGAUCACCCAUGUAUUGUACAAUCCAGUUUAAUAAUGGUCCG [JMF 49] (puzzle: Sensor for hsa-mir-208a) |  |  |  | 0.105 µM | 0.0873 µM | 0.13 µM
12 | AGGCCAUCAGGAGGAUAUGGCACCUUAUUGGUGCCAGAAGGUCUAACAUGAGGAUCACCCAUGUGGGUGUGGUCGAAAGACCAC [Fiskers NG1(ss) - 5] (Eterna round: R96, puzzle: Same State NG 1) | 0.0999 µM | 0.0712 µM | 0.098 µM |  |  | 
13 | UGGCUCAGACGAGGAUAUGAUCAUGGCGCUUCGGCGCAUACAUGAGGAUCACCCAUGUAAAGUGAUCAGAAGGUGUCUGAGCCA [SSNG2/7-B2] (Eterna round: R96, puzzle: Same State NG 2) | 0.013 µM | 0.0116 µM | 0.0145 µM |  |  | 
14 | UACAAUCUAUCUGAGGAUAUCAUGAAAAAAACAUGAGGAUCACCCAUGUGCAGGAAAACUGCAUAUGAGAAGGCAGAUAGAUUGA [salish99_SS2_r3_005] (Eterna round: R96, puzzle: Same State 2) |  | 0.517 µM |  |  |  | 
15 | UGGUUGGAGAGAGAGGAUAUCCAAUUUUCAACAUGAGGAUCACCCAUGUAGAACGUAGGUAAUUGGGAGAAGGCUCAAGAGACAU [salish99_ss2_r3_100] (puzzle: Same State 2) |  |  |  | 0.0269 µM | 0.0145 µM | 0.0235 µM
16 | GCGGAACAUGAGGAUCACCCAUGUGGAGGGUGUAAAGGAUAUUAUAGAGAGAAGGUAGGGUAAGAAGGUUGCUGGG [JR_SS1_Sub090] (puzzle: Same State 1) |  |  |  | 0.624 µM | 0.32 µM | 0.592 µM

Row | Sequence | apparent KD of MS2 coat protein (input ligand: FMN 200 uM) | apparent KD of MS2 coat protein [1] | apparent KD of MS2 coat protein (input ligand: none) | apparent KD of MS2 coat protein [2] | apparent KD of MS2 coat protein [3] | apparent KD of MS2 coat protein [4]
17 | GGAAUAUGAUGUUACAUGAGGAUCACCCAUGUAGUAAUAACUAAGGAUAUCUGAAAGGGAGGAGAAGAGAAGGUAGGAUCAUAA [AK SSNG3-V2-10.2] (Eterna round: R96, puzzle: Same State NG 3) | 0.06 µM | 0.0354 µM | 0.0564 µM |  |  | 
18 | UGACACACGGCAGGAUAUCCUUAGCAAAGCUAAGGAGAAGGGCCUCAUGUCGUGGAAACGUGACAUGAGGAUCACCCAUGUCGC [Omei SS(NG)1 Cv8] (Eterna round: R96, puzzle: Same State NG 1) | 0.0587 µM | 0.00565 µM | 0.0341 µM |  |  | 
19 | AAAUGUAGGAAACAACAGCAAGAGCAUGUACAUGAGGAUCACCCAUGUCAUGUACAAGCUUUUUGCUGGUCUUAUUA [ak 2 mod of one Eli's designs..] (puzzle: Sensor for hsa-mir-208a) |  |  |  | 0.0237 µM | 0.031 µM | 0.0196 µM
20 | AUAUGAGAAGCAGGAUAUGUGGAGAAGAAAGAAACAGAAGGGCUUAUGGGACAACAUGAGGAUCACCCAUGUUCUCUGUGAUGA [AK SSNG1-V2-2.1] (Eterna round: R96, puzzle: Same State NG 1) | 0.0428 µM | 0.144 µM | 0.188 µM |  |  | 
21 | GCCGCGUUUAACGCCUACAUGAGGAUCACCCAUGUAUGUAGGCAGGAUAUCGUUUGCUUUGCAAACGAGAAGGGCUGUAGUGGC [salish99_SSNG3_R04_006] (Eterna round: R96, puzzle: Same State NG 3) | 0.0259 µM | 0.0739 µM | 0.0809 µM |  |  | 
22 | GGAAUGUGAUGUUACAUGAGGAUCACCCAUGUAGUGACAACUAAGGAUAUCUGAAAAGAAGGAGAGGAGAAGGUAGGAUCACAA [AK SSNG3-V2-15] (Eterna round: R96, puzzle: Same State NG 3) | 0.0308 µM | 0.0392 µM | 0.0589 µM |  |  | 
23 | GGUCCAGCCUGAGCUGGACAAAAGCAUGUACAUGAGGAUCACCCAUGUCAUGUACAAGCUUUUUGCUCGUCAUAAAG [Mat - hsa-mir-208a - 97] (puzzle: Sensor for hsa-mir-208a) |  |  |  | 0.228 µM | 0.0182 µM | 0.334 µM
24 | UGUACCUUCACAGGAUAUCAUGCGAAAAUUGCGUGAGAAGGGUGAAUACGGUGUUAAUAAAAGCACAUGAGGAUCACCCAUGUA [SameState NG1 #56] (Eterna round: R96, puzzle: Same State NG 1) | 0.303 µM | 0.246 µM | 0.471 µM |  |  | 
25 | AGCUAGUACCGAGGAUAUACGUACAUGAGGAUCACCCAUGUAUACAUGAUUAAAUGAGACUACAUGUAGAAGGCGGUACUAGCA [Mat - Same State NG 2 - JL mod - D48] (Eterna round: R96, puzzle: Same State NG 2) | 0.015 µM | 0.0271 µM | 0.0481 µM |  |  | 
26 | AGUAGUGUAACAUGAGGAUCACCCAUGUAAGAAGAUGUAACCUAGGAUAUGGAUGUUAUGUUUGACCAGAAGGAGGAUUGUUUA [JR_SSNG3_Sub040] (Eterna round: R96, puzzle: Same State NG 3) | 0.0226 µM | 0.0321 µM | 0.0371 µM |  |  | 
27 | GGAAUAUGAUGUUACAUGAGGAUCACCCAUGUAGUGAUAACUAAGGAUAUCUGUUAAGAUAACUAAGAGAAGGUAGGAUCAUAA [AK SSNG3-V2-8.3] (Eterna round: R96, puzzle: Same State NG 3) | 0.0497 µM | 0.0449 µM | 0.0559 µM |  |  | 
28 | GGUCCGGCCUGAGCUGGACCGGAGCAUGUACAUGAGGAUCACCCAUGUCAUGUACAGGCUUCUUGCUCGUCUUGUUG [JL-shm-2.16 JL Mod] (Eterna round: R96, puzzle: Sensor for hsa-mir-208a) | 0.282 µM | 0.0148 µM | 0.13 µM |  |  | 
29 | UGAGCCGGCACUGAGGAUAUUCAUAUUAAAACAUGAGGAUCACCCAUGUAGGCCAGAAGGCCUUGGGAGAAGGCAGGUCGGCUCA [Mat - Same State 2 - Mod of UCT - D62] (Eterna round: R96, puzzle: Same State 2) | 0.0195 µM | 0.19 µM | 0.311 µM |  |  | 
30 | AAUUUGGGACAUGAGGAUCACCCAUGUAUUAUAAAUGGGACAAGUUUUUUGCUCGUCUUAUACAUGGGUGAAAAUCU [Test] (puzzle: Sensor for hsa-mir-208a version 2) |  |  |  | 0.0178 µM | 0.0217 µM | 0.0237 µM
31 | AGUCCAGCGAAAGCUGGACAAAAGCAUGUACAUGAGGAUCACCCAUGUUCAUGUAUAAGCUUUUUGCUCGUCUUAAA [JL mod - D95 - 12] (puzzle: Sensor for hsa-mir-208a) |  |  |  | 0.0181 µM | 0.0092 µM | 0.0159 µM
